Measurements reported in patent US20240010735A1 (EISAI R AND D MANAGEMENT, published 2024).

Tests used:
[1] = target: T1, mouse EphA4 extracellular region-SEAP-His protein (mouse); assay: SPR, Biacore T200; EphA4 extracellular region-SEAP-His captured on anti-His chip, antibody as analyte, 1:1 model
T1 construct: also called mouse EphA4 extracellular region-SEAP-His 10
Procedure: The binding affinity of antibody A against mouse and human EphA4 was determined by surface plasmon resonance (SPR method) employing Biacore T200 (GE Healthcare). First, anti-His antibodies (GE Healthcare, 28-9950-56) were fixed to a sensor chip CM5. Fixation was carried out by amine coupling method employing N-hydroxysuccinimide (NHS) and N-ethyl-N′-(3-dimethylaminopropyl) carbodiimide hydrochloride salt (EDC), and ethanolamine was employed for blocking (the sensor chip and reagents for fixation are all from GE Healthcare). This was diluted with the fixation buffer (10 mM sodium acetate, pH 4.5) to 3.5 μg/mL, and fixed onto the sensor chip according to the protocol accompanying Biacore T200. Mouse or human EphA4 extracellular region-SEAP-His 10 was diluted with the running buffer HBS-EP (GE Healthcare, BR-1001-88), and the solution was sent and captured onto the flow cell for 120 seconds (about 10 RU of captured amount). Subsequently, antibody A serially diluted to a range of 100, 50, 25, 12.5, 6.3, 3.2, 1.6, 0 nM with HBS-EP was added to the sensor chip for 120 seconds, and the binding reaction curve at the time of addition (binding phase, 120 seconds) and after completing the addition (dissociation phase, 600 seconds) was sequentially observed. Upon completion of each observation, 4 M MgCl₂ (60 seconds, Wako Pure Chemicals) was added to regenerate the sensor chip. Fitting analysis by 1:1 binding model employing the software accompanying the system, BIA evaluation software, was carried out against the binding reaction curve obtained, and the binding affinity (KD=kd/ka) against mouse and human EphA4 was calculated.
The binding affinity of antibody B obtained in Example 1 against human EphA4 was determined by surface plasmon resonance (SPR method) employing Biacore T200 (GE Healthcare). First, anti-His antibodies (GE Healthcare, 28-9950-56) were fixed to a sensor chip CMS. […]

MBP = assay: ELISA: human EphA4 domain-MBP-His proteins (10 nM) captured on anti-6-His antibody, antibody A 10 nM, HRP anti-mouse IgG Fc fragment antibody, OD450-OD650
Procedure: For antibody A, the evaluation of binding activity with various domains in human EphA4 was carried cut according to the following steps.
Rabbit anti-6-His antibodies (Bethyl Laboratories) were coated onto the wells of a 96-well plate (Nunc). After incubating at 4° C. overnight, the wells were blocked at room temperature for 1 hour by 1% Block Ace (DS Pharma Biomedical). After washing twice with 0.02% Tween 20/PBS (Nacalai Tesque), human EphA4 extracellular region-MBP-His protein, human EphA4 ligand binding domain-MBP-His protein, human EphA4 fibronectin type III domain 1-NBP-His protein, and human EphA4 fibronectin type III domain 2-MBP-His protein (final concentration 10 nM) were seeded into the wells, and incubated at room temperature for 1 hour. After washing 3 times, antibody A (final concentration 10 nM) was supplemented to the wells, and incubated at room temperature for 1 hour. Horseradish peroxidase-labeled goat anti-mouse IgG Fcγ fragment antibody (Jackson ImmunoResearch Laboratories) was added, and incubated at room temperature for 1 hour. After washing 5 times, TMB solution (KPL) was added to the wells, and upon confirmation of modest coloring, an equal amount of quenching solution (2 N H₂SO₄, Wako Pure Chemicals) was added to the wells, and absorbance at 450 nm and 650 nm were read by a microplate reader (PerkinElmer).

[2] = target: T2, monkey EphA4 extracellular region-Fc-His protein (monkey; human); assay: ELISA: EphA4 extracellular region-Fc-His (1 nM) captured on anti-human IgG antibody, antibody A titrated with human IgG 100 µg/mL, HRP anti-mouse IgG, OD450 as % of top concentration
T2 construct: not shown: Fc region of human IgG1; histidine tag
T2 sequence (chain, as listed by the source): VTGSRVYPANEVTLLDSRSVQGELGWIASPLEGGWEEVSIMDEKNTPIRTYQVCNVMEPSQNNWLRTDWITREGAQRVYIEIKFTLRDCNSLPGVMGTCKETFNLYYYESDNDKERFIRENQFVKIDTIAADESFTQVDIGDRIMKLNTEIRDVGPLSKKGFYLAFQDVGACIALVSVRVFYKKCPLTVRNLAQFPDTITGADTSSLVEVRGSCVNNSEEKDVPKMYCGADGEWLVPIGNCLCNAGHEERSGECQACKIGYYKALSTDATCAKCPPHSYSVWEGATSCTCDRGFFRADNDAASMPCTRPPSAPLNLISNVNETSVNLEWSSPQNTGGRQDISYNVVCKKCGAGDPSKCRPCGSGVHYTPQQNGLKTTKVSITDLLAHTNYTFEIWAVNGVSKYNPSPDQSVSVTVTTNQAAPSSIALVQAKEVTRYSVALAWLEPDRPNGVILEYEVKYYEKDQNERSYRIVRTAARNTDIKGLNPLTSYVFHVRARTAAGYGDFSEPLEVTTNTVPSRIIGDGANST
Procedure: (§1) Donkey anti-human IgG antibodies (Jackson ImmunoResearch Laboratories) were coated onto the wells of a 96-well plate (Nunc). After incubating at 4° C. overnight, the wells were blocked at room temperature for 1 hour by 1% Block Ace (DS Pharma Biomedical). After washing 3 times with 0.05% Tween 20/PBS (Thermo […]), mouse, rat, monkey, and human EphA4 extracellular region-Fc-His proteins (final concentration 1 nM) were seeded into the wells, and incubated at room temperature for 1 hour. After washing 3 times, human IgG solution (100 μg/mL, Mitsubishi Pharma Corporation) and antibody A (0, 0.00013, 0.00064, 0.0032, 0.016, 0.08, 0.4, 2, 10, μg/mL) were supplemented to the wells, and incubated at room temperature for 1 hour. Horseradish peroxidase-labeled donkey anti-mouse IgG antibody (Jackson ImmunoResearch Laboratories) was added, and incubated at room temperature for 1 hour. After washing 3 times, TMBZ (3,3′,5,5′-tetramethylbenzidine, Sigma) solution was added to the wells, and upon confirmation of modest coloring, an equal amount of quenching solution (1 N H₂SO₄, Wako Pure Chemicals) was added to the wells, and absorbance at 450 nm was read by a microplate reader (PerkinElmer).

[3] = target: T3, human EphA4 extracellular region-Fc-His protein (human, UniProt P54764 20-547); assay: as above
T3 construct: not shown: Fc region of human IgG1; histidine tag
T3 sequence (P54764 20-547): as the sequence (chain, as listed by the source) above, with S406N counted along it
Procedure: as §1

[4] = target: T4, mouse EphA4 extracellular region-Fc-His protein (mouse; human, UniProt Q03137 20-547); assay: as above
T4 construct: Used as culture supernatant of transfected cells; not shown: Fc region of human IgG1; histidine tag
T4 sequence (Q03137 20-547): as the sequence (chain, as listed by the source) above, with P59A, N121S, V124G, R250Q, S251N, T270S, K378R counted along it
Procedure: as §1

[5] = target: T5, rat EphA4 extracellular region-Fc-His protein (rat; human, UniProt D3ZZK3 20-547); assay: as above
T5 construct: range 20-547; also called rat EphA4 extracellular region-Pc-His protein; not shown: Fc region of human IgG1; histidine tag
Procedure: as §1

T1 sequence (chain, as listed by the source limits assumed): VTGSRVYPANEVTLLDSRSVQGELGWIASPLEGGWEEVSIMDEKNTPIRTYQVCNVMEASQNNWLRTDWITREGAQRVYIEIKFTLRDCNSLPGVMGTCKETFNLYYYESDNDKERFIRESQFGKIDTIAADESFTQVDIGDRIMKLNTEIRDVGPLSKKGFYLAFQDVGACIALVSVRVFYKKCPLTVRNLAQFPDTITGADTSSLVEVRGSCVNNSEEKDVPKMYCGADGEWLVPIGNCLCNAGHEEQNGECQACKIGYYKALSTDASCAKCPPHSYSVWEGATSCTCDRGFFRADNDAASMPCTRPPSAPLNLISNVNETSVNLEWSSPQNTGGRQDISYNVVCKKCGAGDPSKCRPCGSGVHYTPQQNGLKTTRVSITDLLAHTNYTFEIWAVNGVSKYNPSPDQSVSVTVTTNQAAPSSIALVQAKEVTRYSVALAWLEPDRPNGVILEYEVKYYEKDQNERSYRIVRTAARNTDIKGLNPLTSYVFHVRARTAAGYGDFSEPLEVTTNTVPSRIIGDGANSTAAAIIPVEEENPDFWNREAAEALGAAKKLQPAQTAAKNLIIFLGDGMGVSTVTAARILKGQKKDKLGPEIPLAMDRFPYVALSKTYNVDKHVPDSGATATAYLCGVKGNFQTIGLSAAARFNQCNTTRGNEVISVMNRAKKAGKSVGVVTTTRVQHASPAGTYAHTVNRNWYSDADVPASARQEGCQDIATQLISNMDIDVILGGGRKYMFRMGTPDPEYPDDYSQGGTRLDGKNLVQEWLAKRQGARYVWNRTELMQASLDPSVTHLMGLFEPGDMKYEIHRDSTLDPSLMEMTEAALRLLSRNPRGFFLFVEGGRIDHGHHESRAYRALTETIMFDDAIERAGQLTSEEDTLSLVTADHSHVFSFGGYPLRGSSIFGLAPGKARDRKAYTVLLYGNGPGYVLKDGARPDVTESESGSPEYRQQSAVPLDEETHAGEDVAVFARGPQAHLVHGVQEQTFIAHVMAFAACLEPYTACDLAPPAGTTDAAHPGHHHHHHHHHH

B1: mouse anti-EphA4 monoclonal antibody (antibody A) (antibody, mouse IgG1, kappa, V domains shown)
VH: QVQLKQSGPSLVQPSQSLSITCTVSGFSLTRYGVHWVRQSPGKGLEWLGVIWRGGSTDYNAAFMSRLSITKDNSKSQVFFKMNSLQADDTAIYYCAKESLFGVYYDYGYYSMDYWGQGTSVTVSS
VL: DIQMTQSPSSLSASLGERVSLTCRASQEISGYLSWLQQKPDGTIKRLIYAASTLDSGVPKRFSGSRSGSDYSLTISSLESEDFADYYCLQYASYPLTFGAGTKLELKR
notes: purified from hybridoma supernatant
[1]
  Kd: 1.32 nM
MBP
  binding result: no binding (tested: 10 nM)
[2]
  EC50 (read off the curve): ~0.1 nM
[3]
  EC50 (read off the curve): ~0.1 nM
[4]
  EC50 (read off the curve): ~0.1 nM
[5]
  EC50 (read off the curve): ~0.1 nM
